Assay results published in the nanobody polyreactivity screen of Harvey et al. (2022).

Test: yeast display, Sf9 membrane polyspecificity reagent, FACS + sequencing; frameworks hold sequencing errors
Method in brief: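 A nanobody's polyreactivity label depends on the gate it was sorted from. Yeast display cells were stained with 10% biotinylated, detergent-solubilized Sf9 membrane reagent for 1 hour at 4 °C, enriched on streptavidin microbeads and sorted by FACS. The low and high (top ~1%) gates were set on anti-HA fluorescence for expression and streptavidin fluorescence for reagent binding.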

With “QDQLVESGGGLVQAGGSLRLSCAASGRIFSVNAMGWYRQAPGKERELVAAISRRGTSTFYADSVKGRFTISRDNAKNTVYLQMNSLKPEDTAVYYCAADFYPYQYKFDYWGQGTQVTVSS” the “polyreactivity (PSR sort gate)” value was “high polyreactivity”.
For “QVHLVESGGGLLQAGGSLRLSFAASGTFYYYAMGWNRQAPGKERELVATISWDSASTYYADSVKGRFTISRDNAKNTVYLQMNSLKPEDTGVYYCAAGGSSSWAFNYWGQGTQVTVSS”, the “polyreactivity (PSR sort gate)” value was “low polyreactivity”.
For “QVQLVESGGGLVQAGGSLRLSCAASGIIFSVYAMGWYRQAPGKERELVAAITWSGSRTYYADSVKGRFTISRDNAKNTVYLQMNSLKPEDTAVYYCATVFRGFVEYEYWGQGTQVTVSS”, the “polyreactivity (PSR sort gate)” value was “low polyreactivity”.
With “QVQLVESGGGIVQAGGSLRLSCAASGRTFFHYAMGWYRQAPGKERELVAGISSGGRTKYADSVKGRFTISRDNAKNTVYLQMNSLKPEDTAVYYCAASYIVWLTRGAPRKRFDYWGQGTQVTVSS” the “polyreactivity (PSR sort gate)” value was “high polyreactivity”.
With “QVQLVESWGGLVQAGGSLRLSCAASGRIFHRNTMGWYRQAPGKERELVAAIRSGSRTYYADSVKGRFTISRDNAKNTVYLQMNSLKPEDTAVYDCATTFGTPRYDYWGQGTQVTVSS” the “polyreactivity (PSR sort gate)” value was “high polyreactivity”.
With “QVQLVETVGGLVQAGGSLRLRCAASGSIFLYNAMGWYRQAPGKERELFAVINGRGGTYYADSVKGRFTISRDNAKNTVYLQINSLKPEDTAVYYCATGYTPSAWYDSVRFEDRDSWGQGTQVTVSS” the “polyreactivity (PSR sort gate)” value was “low polyreactivity”.
For “QVQLVESGGGLVQAGGSLRISSAAYGRIIYGYAMGWYRQAPGKERELVAAITWRGTSTYYADSVKGRFTISRDNAKNTVYLQMNCLKPEDTAVYYCNAVRSLAYWGQGTQVTVSS”, the “polyreactivity (PSR sort gate)” value was “high polyreactivity”.
With “QVQLVESGGGLVQAGGSLRLSCAASGITFPYYALGWYRQAPGKERELVARISRGGRTNYADSVKGRFTISRDNAKNTVYLQMNSLKPEDTAVYYCNAGYTYYKYGYWGQGTQVTVSS” the “polyreactivity (PSR sort gate)” value was “high polyreactivity”.
With “QVQLVESGGGLVQAGGSLRLSCAASGSIFSSYALGWYRQAPGKERELVAAISQSGGDTYYADSVKGRFTISRDNAKNTVYLQMNSLKPEDTAVYYCAADWAYYVASYLYYTFDYWGQGTQVTVSS” the “polyreactivity (PSR sort gate)” value was “low polyreactivity”.
In the case of “QVHLVESGGGLVQAGGSLRLSCAATGSTFTINAMGWYRQAPGKERELVAAINDGDDTYYADSVKGRFTISRDNAKNTVYLQMNSLKPEDTAVYFCAADIIYGYEVYTYTSDYWGQGTQVTVSS”, the “polyreactivity (PSR sort gate)” value is reported as “low polyreactivity”.
In the case of “QVQLVESGGGLVQAGGSLRLSCAASGNIFDRYVMGWYRQAPGKERELVAAISVSGGSTYYADSVKGRFTISRDNAKNTVFLQMNSLKPEDTAVYYCAAHSRLINWYDYWGQGTQVTVSS”, the “polyreactivity (PSR sort gate)” value is reported as “high polyreactivity”.
For “QVQLVESGGGLVQAGGSLRLSCAASGSTFGYYAMGWYRQAPGKERELVAVITRSGDRTYYADSVKGRFTISRDNAKNTVYLQMNSLKPEDTGVYYCAARATSAGGVAEYYWGQGTQVTVSS”, the “polyreactivity (PSR sort gate)” value was “high polyreactivity”.
With “QVQLVESGGGLVQEGGSLRLSCAASGSTFVHYDMGWYRQAPGKERELVAGITDTDNHELRRLCEGRFTISRDKAKNTVYLQMNSLKPEDTAVYYCNADDTYYPLGGITGYDYWGQGTQVTVSS” the “polyreactivity (PSR sort gate)” value was “low polyreactivity”.
For “QVQLVESGGGLVQAGGSLRLSCAASGLTLYLYTMGWYRQAPGTERELVASIDSGTSTKYADSVKGRFTISRDNAKNTVYLQMNSLKPEDTAVYYCAAGVWVTRYFGYYYWGQGTQVTVSS”, the “polyreactivity (PSR sort gate)” value was “low polyreactivity”.
With “QVQLQESGGGLVQAGGSLRLSCAASGTLSPLPAMGWYRQAPGKEREFVPGIDTGAITNYADSLKGRFTISRDNAKYTVYLQMNSLKPEDTAVYYCAVFPAAYLYYERYDTYWGQGTQVTVSS” the “polyreactivity (PSR sort gate)” value was “low polyreactivity”.
For “QVQLVESGGGLVQAGGSLRLSCAASGFIFWQYTMGWYRPAPGKERELVAAINGGSATYYADSVKGRFTISRDNAKNTVYLQMNSLKPEDTAVYYCAADRYLYHYRYEYYYWGQGTQVTVSS”, the “polyreactivity (PSR sort gate)” value was “high polyreactivity”.
In the case of “QVQLVESGGGLVQTGGSLRLSCAASGLTLYVYAMGWYRQAPGKERELVASITSGGSTNYADSVKGRFTISRDNAKNTVYLQMNSLKPEDTAVYYCAAETDTVYDWIAPYVTYDYWGQGTQVTVSS”, the “polyreactivity (PSR sort gate)” value is reported as “low polyreactivity”.
In the case of “QLQLVESGGGLVQAGGSLRLSCAASRSTFKYYAMGWYRQAHGKERELVAAISRRGGSTYYADSVKGRFTISRDNAKNTVYLQMNSLKPEDTAVYYCAADIIRPVTVDYWGQGTQVTVSS”, the “polyreactivity (PSR sort gate)” value is reported as “high polyreactivity”.
In the case of “QVQLVESGGGLVQAGGSLRLSCAASGFIFASYAMGWYRQAPGKERELVAAISSRGGRTYYADSVKGRFTISRDNAKNTVSLQMNSLKPEDTAVYYCAAENYWLAWYKGYDYCGQGTQVTVSS”, the “polyreactivity (PSR sort gate)” value is reported as “high polyreactivity”.
For “QVQLVESGGGLVQAGGSLRLSCAASGSTFDGNAMGWYRQAPGKERELVAAITYTTSSTYYADSVKGRFTISRDNAKNTVYLQMNSLKPEDTAVYYCAAGVNYRSPGVSKGRDYWGQGTQVTVSS”, the “polyreactivity (PSR sort gate)” value was “low polyreactivity”.
With “QVQLVESGGGLVQAGGSLSLSSAATGNIFRNNAMGWYRQAPGKERELGAAISYSGGRTFYADSVKGRFTISRDNAKNTVYLQMNSLKPEDTAVYYCAVTYGRNADDYEYWGQGTQVTVSS” the “polyreactivity (PSR sort gate)” value was “high polyreactivity”.
With “QVQLVESGGGLVQAGGSLRLSCAASGSTFAYYAMGWYRQAPGKERELVARIRSSGVSTYYADSVKGRFTISRDNAKNTVYLQMNSLKPEDTAVYYCNKAYSGVRYDSWGQGTQVTVSS” the “polyreactivity (PSR sort gate)” value was “low polyreactivity”.
In the case of “QVQLVESGGGLVQAGGSLRLSCADSGRTNPHYAMGWYRQAPGKESEFVAAISSRGGSTYDADSVKGRFTISRDNAKNTVYVQMNSLKPEDTAVYYCAAQYDGLPRVSYGLGEFGYWGQGSQVTVSS”, the “polyreactivity (PSR sort gate)” value is reported as “low polyreactivity”.
For “QVQLVESGGGLVQAGGSLRLSCAASGRISGFYTMGWYRQAPGKERELVATITRSGSRTYYADSVKGRFTISRDNAKNTVYLQMNSLKPEDTAVYYCARSQAVYDGWFAKFGYWGQGTQVTVSS”, the “polyreactivity (PSR sort gate)” value was “low polyreactivity”.
With “QVQLVESGGGLVQAGGSLRLSCAASGRTFYKYAKGWYRQAPGKERELVAAISWSGGSTYYADSVKGRFTISRDNAKNTVYLLMKSLKPEDTAVYYSNRASYPFVKPRYECWGQGTQVTVSS” the “polyreactivity (PSR sort gate)” value was “high polyreactivity”.
With “QVQLVESGGGLVQAGGSLRLSCAASGRIFNDYAMGWYRQAPGKERELVATYADSVKGRFTISRDNAKNTVYLQMNSLKPEDTAVYYCAADFPSFPDFRPEYDYWGQGTQVTVSS” the “polyreactivity (PSR sort gate)” value was “low polyreactivity”.
With “QVQLVESGGGLVQAGGSLRLSCAASGFIFSYYAMGWYRQAPGKERELVAAITVRGGSTYYADSVKGRFTISRDNAKNTVYLQRNCLKPEDTAVYYCNTVHGLWRRYNYWGQGTQVTVSS” the “polyreactivity (PSR sort gate)” value was “high polyreactivity”.
In the case of “QVQLVESGGGLVQAGGSLRLSCAASGSIFRQYAMGLSRQAPGKERELVAAITYSGGNTYYADSVKGRFTISRDNAKNPVYLQLNSLKPEDTAVYYCAADYGSRSWEYTYWGQGTQVTVSS”, the “polyreactivity (PSR sort gate)” value is reported as “low polyreactivity”.
For “QVQLVESGGGLVQAGGSLRLSCAASGFIIDGYAMGWYRQAPVKERELVAVISQRGSNTYYADSVKGRFTISRDNAKNTVYLQMNSLKPEDTAVYYCAARYKQGDSTGGRMNYWGQGTQVTVSS”, the “polyreactivity (PSR sort gate)” value was “high polyreactivity”.
With “QVQLVESGGGLVQAGGSLRLSCAASGSTFDRYTMGWYRQAPGKERELVAAISISGGSTYYADSVKGRFTISRDNAKNTVYLQMNSLKPEDTEVYYCAARLDTVTDYYYWGQGTQVTVSS” the “polyreactivity (PSR sort gate)” value was “low polyreactivity”.
For “QVQLVESGGGLVQAGGSLRLSCAASGFTFRIYAMGWYRQAPGKERELVATISWSGTSTYYADSVKGRFTISRDNAKNTVYLQMNSLKPEDTAVYYCAKDGVSFYWLNKYYYWGQGTQVTVSS”, the “polyreactivity (PSR sort gate)” value was “low polyreactivity”.
With “QVQLVESGGGLVQAGGSLRLSCAASGLTLYDYAMGWYRQAPGKERELVADIDFNGGSTSYADSVKGRFTISRDNAKNTVYLQMNSLKPEDTAVYYCNTRDRGDVVTGLDYWGQGTQVTVSS” the “polyreactivity (PSR sort gate)” value was “low polyreactivity”.
For “QVQLVESGGGLVQAGGSLRLSCAASGFTFTYYSMGWYRQAPGKERELVARINSCGNTNYADSVKGRFTISRDNAKNTVYLQMNSLKPEDTAVYSCARDACNRYDYWGQGTQVTVSS”, the “polyreactivity (PSR sort gate)” value was “low polyreactivity”.
With “QVQLVESGGVLVQAGGSLRLSCAASGSIFFYYAMGWYRQAPGKERELVAAITFTGGSTYYADSVKGRFTISRDNAKNTVYLQMKSLKPEDTAVYYCAADWYYGDEYEYWGQGTQVTVSS” the “polyreactivity (PSR sort gate)” value was “high polyreactivity”.
With “QVQLVESGGGLVQAGGSLRLSCAASGNTFGVYAMGWYRQAPGKERELVAAIRYRGGSTYYADSVKGRFTISRDKAKNTVYLQMTSLKPEETAVYYCAAVYYVQYVGRYYYWGQGTQVTVSS” the “polyreactivity (PSR sort gate)” value was “high polyreactivity”.
For “QVQLVESGGGLVQAGGSLRLSCAASGFIFRLYALGWYRQAPGKERELVAAIRSAGSTYYADSVKGRFTISRDNAKNTVYLQMNSLKPEDTPVYYCAARSGHTYYFIGNYWGQGTQVTVSS”, the “polyreactivity (PSR sort gate)” value was “high polyreactivity”.
With “QVQLVESGGGLVQAGGSLRLSCAASGYIFLPYAMGWYRQARGKEREVVAAIRWSGGSTYYADSVKGRFTISRDNAKNTVYLQMNSLKPEDTAVYYCAAYYVARDRRYPKAYSYEYWGQGTQVTVLS” the “polyreactivity (PSR sort gate)” value was “high polyreactivity”.
For “QVQLVESGGGLVQAGGSLRLSCAASGSIFGRYAMGWYRQAPGTEREGVAAISRSCDNTSYADSVKGRFTISRDTAKNTVYLQMNSLKPEDSAVYYCNADRPFSLGQRKYVDFDEPYNYWGQGTQVTVSS”, the “polyreactivity (PSR sort gate)” value was “low polyreactivity”.
With “QVQHVESGGGLVQAGGSLRLSCAASGSTFSQYGMGWYRQAPGKEREFVAGISGSGGRTYYADSVKGRFTSSRDNAKNTVYLQMNSLKPEDTAVYYCAAETVYKWWYDYYYWGQGTQVTVSS” the “polyreactivity (PSR sort gate)” value was “high polyreactivity”.
With “QVQLVESGGGLVQAGGSLRLSCASGRIFKKNALGWYRQAPGKERELVAGITISGGRTYYADSVKGRFTISRDNAKNTVYLQMNSLKPEDTAVYYCNAGPDRRVSYYRLLDHWGQGTQVTVSS” the “polyreactivity (PSR sort gate)” value was “low polyreactivity”.
With “QVQLVESGGGLVQAGGSLRLSCAASGRIFSGYAMGWYRQAPGKERELVAAISQRGGSTTYADSVKGRFTISRDNAKKTVDLQMNSLKPEDTAVYDCAKRYTYPSGYDYWGQGTQVTVSS” the “polyreactivity (PSR sort gate)” value was “low polyreactivity”.
In the case of “QVQLVESGGGLVQAGGSLRLSCAASGSIFWFNAMGWYRQAPGKEREFVASISRSGGTTYYAHSVKGRFTISRDNAKNTVYLQMNSLKPEDTAVYYFNARAYGNGLGTGYFGKHRYDYWGQGTQVTVSS”, the “polyreactivity (PSR sort gate)” value is reported as “low polyreactivity”.
For “QVQLVESGGGLVQAGGSLRLSCAASGRIFAWNDMGWYRQAPGKERELVAAITSGGSTYYADSVKGRFTISRDNAKNTVYLQMNSLKPEDTAVYYCAADRVRRNDKLAYDYWGQGTQVTVSS”, the “polyreactivity (PSR sort gate)” value was “low polyreactivity”.
